In patent US20010029293A1 (ICOS, published 2001):

Experiments:
soluble human ICAM-R = target: T1, soluble human ICAM-R (human, UniProt P32942 30-485); experiment: ELISA on coated shICAM-R; Low = 50% maximal binding at >1 µg/ml, High = at <1 µg/ml
T1 construct: baculovirus/Sf-9 product; also called shICAM-R; ICAM-Rt1
T1 chain: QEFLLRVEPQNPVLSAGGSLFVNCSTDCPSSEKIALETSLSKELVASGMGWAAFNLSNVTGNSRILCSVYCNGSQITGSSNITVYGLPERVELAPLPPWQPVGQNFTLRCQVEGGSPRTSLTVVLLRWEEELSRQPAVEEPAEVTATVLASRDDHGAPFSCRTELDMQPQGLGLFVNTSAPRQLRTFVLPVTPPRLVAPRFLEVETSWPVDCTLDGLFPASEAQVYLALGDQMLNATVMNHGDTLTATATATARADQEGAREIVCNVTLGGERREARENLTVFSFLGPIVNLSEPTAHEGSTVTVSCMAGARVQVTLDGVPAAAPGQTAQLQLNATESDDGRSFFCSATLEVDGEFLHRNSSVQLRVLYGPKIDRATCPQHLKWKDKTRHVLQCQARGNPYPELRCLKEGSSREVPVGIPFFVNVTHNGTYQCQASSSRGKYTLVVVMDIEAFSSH

human ICAM-1 = target: T2, human ICAM-1 (human, UniProt P05362 28-532); experiment: FACS, 5 µg/ml
T2 construct: whole, on cells; on transfected L or COS cells
T2 sequence (P05362 28-532): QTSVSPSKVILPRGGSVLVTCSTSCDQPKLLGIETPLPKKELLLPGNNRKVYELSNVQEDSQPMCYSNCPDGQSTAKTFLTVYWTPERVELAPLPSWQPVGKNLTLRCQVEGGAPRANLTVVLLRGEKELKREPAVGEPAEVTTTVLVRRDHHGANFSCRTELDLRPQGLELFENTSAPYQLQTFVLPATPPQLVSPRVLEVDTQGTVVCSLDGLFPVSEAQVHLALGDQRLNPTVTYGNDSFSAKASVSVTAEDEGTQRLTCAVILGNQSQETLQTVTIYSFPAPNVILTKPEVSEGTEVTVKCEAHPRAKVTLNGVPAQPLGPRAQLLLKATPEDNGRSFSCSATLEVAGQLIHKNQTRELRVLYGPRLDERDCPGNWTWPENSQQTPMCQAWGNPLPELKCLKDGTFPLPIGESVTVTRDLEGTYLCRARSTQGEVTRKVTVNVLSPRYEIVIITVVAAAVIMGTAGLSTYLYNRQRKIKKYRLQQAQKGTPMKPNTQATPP

human ICAM-R [1] = target: T3, human ICAM-R (human, UniProt P32942 30-547); experiment: FACS, 5 µg/ml
T3 construct: On transfected L, CV-1 or COS cells, or native on human leukocytes and cell lines; also called ICAM-3; CDw50
T3 chain: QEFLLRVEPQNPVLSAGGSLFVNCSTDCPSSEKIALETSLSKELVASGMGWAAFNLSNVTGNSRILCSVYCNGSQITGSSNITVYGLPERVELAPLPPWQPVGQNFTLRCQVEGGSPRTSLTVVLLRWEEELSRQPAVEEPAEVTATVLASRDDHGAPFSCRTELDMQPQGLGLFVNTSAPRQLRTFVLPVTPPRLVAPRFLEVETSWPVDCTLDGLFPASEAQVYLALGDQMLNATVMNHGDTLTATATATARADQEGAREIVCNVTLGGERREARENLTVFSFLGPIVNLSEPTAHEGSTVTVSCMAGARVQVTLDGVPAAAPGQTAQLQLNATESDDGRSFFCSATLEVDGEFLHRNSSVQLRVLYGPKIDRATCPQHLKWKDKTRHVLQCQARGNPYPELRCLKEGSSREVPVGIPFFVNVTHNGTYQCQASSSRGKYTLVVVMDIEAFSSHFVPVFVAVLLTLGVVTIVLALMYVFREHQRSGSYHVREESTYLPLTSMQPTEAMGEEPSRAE

[2] = target: T4, chimeric Protein 3 (ICAM-R domains 1-3 / ICAM-1) (human, UniProt P05362 317-532); experiment: FACS, 5 µg/ml
T4 construct: range 317-532; on COS cells; also called Protein number 3; RD1-3.1D4-5

human ICAM-R [3] = target: T3, human ICAM-R; experiment: cell-based or functional assay

B1: ICR-1.1 (antibody, mouse IgG2a, V domains shown)
VH: QVQLQQSGAELADPGASVKMSCKASGYTFTVYWMHWVKQRPGQGLEWIGYINPNTDYTEYNQRFQDKATLTADKSSSTAYMQLSSLTSEDSAVYYCARWGGNSYGLDYWGQGTSVTVSS
VL: QIVLTQSPALMSASPGEKVTMTCSASSSVSYIYWYQQKPRSSPKPWIYLTSNLASGVPARFSGSGSGASYSLTISIMEAEDAATYYCQQWKSIPLTFGAGTKLELK
notes: murine IgG2a, kappa; also called 26E3D; 26E3D-1
monoclonal antibody concentration at 50% maximal binding (ELISA EC50) (soluble human ICAM-R): > 1 µg/mL
percent positive COS cell transfectants (human ICAM-1): 2.43%
percent positive COS cell transfectants (human ICAM-R [1]): 54.3%
percent positive COS cell transfectants [2]: 52.7%
IC50 (µg/ml), inhibition of SEA-induced PBL proliferation by plate-bound antibody (human ICAM-R [3]): 63 µg/mL
